# Laboratory results as given in PMC5128726, “Mechanism and Regulation of DNA-Protein Crosslink Repair by the DNA-Dependent Metalloprotease SPRTN”.
# Substitutions are numbered along the chain they refer to.
# T1: SPRTN-EQ (Homo sapiens, UniProt Q9H040 1-489, E112Q)
# T1 sequence: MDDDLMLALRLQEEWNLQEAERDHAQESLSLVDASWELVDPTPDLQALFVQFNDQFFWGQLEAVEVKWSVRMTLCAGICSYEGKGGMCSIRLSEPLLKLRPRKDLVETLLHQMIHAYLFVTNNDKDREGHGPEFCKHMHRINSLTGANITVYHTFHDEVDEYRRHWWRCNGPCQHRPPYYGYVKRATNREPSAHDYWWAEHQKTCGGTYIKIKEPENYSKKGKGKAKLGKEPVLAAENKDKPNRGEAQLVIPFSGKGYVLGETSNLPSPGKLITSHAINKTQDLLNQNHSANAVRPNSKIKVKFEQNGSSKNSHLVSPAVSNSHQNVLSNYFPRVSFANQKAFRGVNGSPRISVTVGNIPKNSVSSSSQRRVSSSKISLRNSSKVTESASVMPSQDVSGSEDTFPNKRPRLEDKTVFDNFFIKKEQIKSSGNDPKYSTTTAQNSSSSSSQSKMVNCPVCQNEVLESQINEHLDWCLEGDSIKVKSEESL
# T2: SPRTN WT (Homo sapiens, UniProt Q9H040 1-489)
# T2 sequence: T1 sequence with Q112E
# T3: SPRTN 247-489 (Homo sapiens, UniProt Q9H040 247-489)
# T3 sequence: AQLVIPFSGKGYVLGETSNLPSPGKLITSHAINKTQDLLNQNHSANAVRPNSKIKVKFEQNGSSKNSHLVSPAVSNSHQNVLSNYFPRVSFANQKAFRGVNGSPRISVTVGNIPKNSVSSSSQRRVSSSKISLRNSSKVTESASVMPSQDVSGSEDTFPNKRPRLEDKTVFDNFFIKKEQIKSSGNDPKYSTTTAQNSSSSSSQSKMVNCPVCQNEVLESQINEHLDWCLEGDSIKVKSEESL
# T4: SPRTN 1-199 (Homo sapiens, UniProt Q9H040 1-199)
# T4 sequence: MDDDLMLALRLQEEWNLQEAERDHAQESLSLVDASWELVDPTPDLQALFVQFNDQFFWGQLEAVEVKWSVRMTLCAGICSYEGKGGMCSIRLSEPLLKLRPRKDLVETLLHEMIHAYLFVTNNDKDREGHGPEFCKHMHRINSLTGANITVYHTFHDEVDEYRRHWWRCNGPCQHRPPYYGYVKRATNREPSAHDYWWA
# T5: SPRTN 200-250 (Homo sapiens, UniProt Q9H040 200-250)
# T5 sequence: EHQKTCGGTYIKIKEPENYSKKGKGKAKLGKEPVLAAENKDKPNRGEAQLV
# Experiments:
# [1] = target: T1, SPRTN-EQ; assay: SAXS; 1:1.2 protein:DNA; Rg +8-10 A, Dmax +30 A; 50 mM HEPES pH 7.5, 75 mM KCl, 1% glycerol; Oligo EMSA: protein in 250 mM NaCl, 50 mM HEPES pH 7.5, 10% glycerol mixed 1:1 with DNA in 0.2 mg/ml BSA, 15 uM (so in the source) HEPES pH 7.5; 20 min on ice; 6% PAGE. Phage DNA: 0.8% agarose, 4 C; settings: protein: recombinant; tags: N-terminal GST, C-terminal Strep
# [2] = target: T2, SPRTN WT; assay: EMSA; 250 nM DNA, 0.5-1 uM protein; Oligo EMSA: protein in 250 mM NaCl, 50 mM HEPES pH 7.5, 10% glycerol mixed 1:1 with DNA in 0.2 mg/ml BSA, 15 uM (so in the source) HEPES pH 7.5; 20 min on ice; 6% PAGE. Phage DNA: 0.8% agarose, 4 C; settings: protein: recombinant; tags: N-terminal GST, C-terminal Strep; label: 5' Alexa488
# [3] = target: T3, SPRTN 247-489; assay: as above; settings: protein: recombinant; label: 5' Alexa488
# [4] = target: T4, SPRTN 1-199; assay: EMSA; 250 nM DNA, 0.25-1 uM protein; Oligo EMSA: protein in 250 mM NaCl, 50 mM HEPES pH 7.5, 10% glycerol mixed 1:1 with DNA in 0.2 mg/ml BSA, 15 uM (so in the source) HEPES pH 7.5; 20 min on ice; 6% PAGE. Phage DNA: 0.8% agarose, 4 C; settings: protein: recombinant; tags: N-terminal GST, C-terminal Strep; label: 5' Alexa488
# [5] = target: T5, SPRTN 200-250; assay: as above; settings: protein: recombinant; tags: GST; label: 5' Alexa488
Binder,binding result [1],binding result [2],binding result [3],binding result [4],binding result [5]
ACGCTGCCGAATTCT (ssDNA) [15-mer ssDNA],binds,,,,
ACGCTGCCGAATTCTACCAGTGCCTTGCTA (ssDNA) [Alexa488 30-mer ss oligonucleotide],,binds,no binding,no binding,binds
